Earlier results as cited in paper PMC7930624.
Values joined by “and” are separate entries in the source; they are usually repeats but may differ in a detail not shown here. Equal entries are not always repeated.

Biological target: ACE2 (Homo sapiens) (UniProt Q9BYF1)
Sequence (Q9BYF1 18-740): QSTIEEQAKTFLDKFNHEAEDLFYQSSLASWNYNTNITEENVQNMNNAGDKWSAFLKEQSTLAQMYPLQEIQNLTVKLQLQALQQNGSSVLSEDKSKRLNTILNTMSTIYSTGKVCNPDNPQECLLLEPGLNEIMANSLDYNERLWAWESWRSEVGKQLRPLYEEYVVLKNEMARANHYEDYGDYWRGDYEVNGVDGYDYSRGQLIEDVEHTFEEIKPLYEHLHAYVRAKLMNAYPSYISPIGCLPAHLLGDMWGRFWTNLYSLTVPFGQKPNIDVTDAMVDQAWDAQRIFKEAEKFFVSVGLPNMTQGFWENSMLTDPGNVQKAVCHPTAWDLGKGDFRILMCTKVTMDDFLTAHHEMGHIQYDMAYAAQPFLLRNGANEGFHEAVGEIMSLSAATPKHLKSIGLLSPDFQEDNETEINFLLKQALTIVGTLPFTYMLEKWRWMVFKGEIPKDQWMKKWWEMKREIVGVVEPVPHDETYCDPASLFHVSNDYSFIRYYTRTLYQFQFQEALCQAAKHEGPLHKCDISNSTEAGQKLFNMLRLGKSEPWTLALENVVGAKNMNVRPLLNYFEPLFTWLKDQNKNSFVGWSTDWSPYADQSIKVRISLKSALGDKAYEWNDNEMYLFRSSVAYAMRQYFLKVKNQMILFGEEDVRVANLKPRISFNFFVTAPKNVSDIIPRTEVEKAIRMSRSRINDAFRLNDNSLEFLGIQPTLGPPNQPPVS

Sequence of Human defensin-5 (Q01523 63-94): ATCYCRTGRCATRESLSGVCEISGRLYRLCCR

Substance: Human defensin-5 (from UniProt Q01523)
- Kd: 39.3 nM and 76.2 nM
